Measured values from paper PMC8080410 (Bioactive Materials, 2021).

B1: E-OVA_(323-336) (peptide)
peptide: EWEAEAEAEWEGGGQAVHAAHAEINEAGR

Assays:
TEM + DLS = molecular target: the molecule itself; assay: TEM + DLS
E-OVA_(323-336) = molecular target: B1; assay: TEM + rheology + circular dichroism

| binding result (E-OVA_(323-336)) | Binder | binding result (TEM + DLS) |
| --- | --- | --- |
| binds | KWKAKAKAKWKGGGSIINFEKL [K-OVA_(257-264)] | binds |
|  | B1 | binds |
